Measured values from patent US20220195067A1 (LAMKAP BIO BETA, published 2022).
Numbering of substitutions follows the chain as printed.

T1: human CEACAM5 on CEACAM5-expressing cancer cell lines (human, UniProt P06731 35-685)
T1 construct: whole, on cells; also called CEACAM5 on SK-CO-1, MKN-45, HPAF-II, SNU-C1, Ls174T, LoVo cells
T1 sequence (looked up): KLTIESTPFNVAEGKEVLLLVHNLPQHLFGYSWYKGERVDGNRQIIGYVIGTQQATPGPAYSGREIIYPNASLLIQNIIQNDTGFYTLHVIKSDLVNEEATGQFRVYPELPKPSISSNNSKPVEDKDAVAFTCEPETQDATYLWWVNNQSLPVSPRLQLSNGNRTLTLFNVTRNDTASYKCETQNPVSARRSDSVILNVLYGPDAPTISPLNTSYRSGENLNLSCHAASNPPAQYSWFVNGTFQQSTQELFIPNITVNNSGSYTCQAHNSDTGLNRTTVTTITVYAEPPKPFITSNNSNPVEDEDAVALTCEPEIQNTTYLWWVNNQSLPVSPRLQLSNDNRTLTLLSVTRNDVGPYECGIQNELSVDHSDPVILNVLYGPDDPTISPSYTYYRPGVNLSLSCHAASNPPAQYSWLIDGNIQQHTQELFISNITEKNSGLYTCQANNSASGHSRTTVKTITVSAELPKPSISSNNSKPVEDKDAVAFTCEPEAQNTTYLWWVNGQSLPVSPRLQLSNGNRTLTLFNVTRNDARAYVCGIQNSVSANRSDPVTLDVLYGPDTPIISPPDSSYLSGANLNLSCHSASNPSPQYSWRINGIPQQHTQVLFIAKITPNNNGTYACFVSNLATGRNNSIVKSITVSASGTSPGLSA

B1: K2AC82 (bispecific antibody, human IgG1, kappa, lambda)
heavy: not shown
light 1: QSVLTQPPSVSAAPGQKVTISCSGSSSNIGYGLVSWYQQLPGTAPKLLIYGINKRPSGIPDRFSGSKSGTSATLGITGLQTGDEADYYCGTWDFSYRVDFGGGTKLTVLGQPKAAPSVTLFPPSSEELQANKATLVCLISDFYPGAVTVAWKADSSPVKAGVETTTPSKQSNNKYAASSYLSLTPEQWKSHRSYSCQVTHEGSTVEKTVAPTECS
light 2: not shown
notes: Kappa-lambda body; also called CD47xCEACAM5 bispecific antibody K2AC82; AC82 (CEACAM5 arm)
B2: K2AC91 (bispecific antibody, human IgG1, kappa, lambda)
heavy: not shown
light 1: B1 light 1 with Y31I, G51T, I52V, K54N, W92F, R97G, V98I, D99V
light 2: not shown
notes: Kappa-lambda body; also called CD47xCEACAM5 bispecific antibody K2AC91; AC91 (CEACAM5 arm)
B3: K2AC117 (bispecific antibody, human IgG1, kappa, lambda)
heavy: not shown
light 1: B1 light 1 with Y31I, G51N, I52G, K54V
light 2: not shown
notes: Kappa-lambda body; also called CD47xCEACAM5 bispecific antibody K2AC117; AC117 (CEACAM5 arm)

Experiments:
[1] = target: T1, human CEACAM5 on CEACAM5-expressing …; assay: flow cytometry on LoVo cells (carry CEACAM5 and CD47), PE anti-human IgG Fc
Protocol: (§1) The binding of CD47×CEACAM5 bispecific antibodies was tested on CEACAM5-expressing human gastric adenocarcinoma cells (e.g. MKN-45), on CEACAM5-expressing human colorectal cancer cells (SK-CO-1, SNU-C1, Ls174T, and LoVo), and on CEACAM5-expressing pancreatic adenocarcinoma cells (HPAF-II).
(§2) Cells were harvested, counted, checked for viability and resuspended at 3×10⁶ cells/ml in FACS buffer (PBS 2% BSA, 0.1% NaN3). 100 μl of the cell suspension was distributed in V-bottom 96-well plates (3×10⁵ cells/well). The supernatant was removed by centrifugation 3 minutes at 4° C., 1300 rpm. Increasing concentrations of the antibody according to the invention were then added into the wells and incubated for 15 minutes at 4° C. Cells were washed twice with cold FACS buffer and re-incubated for further 15 minutes at 4° C. with the PE (R-phycoerythrin)-conjugated mouse anti-human IgG Fc secondary antibody (SouthernBiotech, pre-diluted 1:100 in FACS buffer). Cells were washed twice with cold FACS buffer and resuspended in 300 μl FACS buffer with 1:15000-diluted SytoxBlue (Life Technologies). Fluorescence, specifically mean fluorescence […] (MFI), was determined using a Cytoflex […] flow cytometer. Binding curves and […] and Emax values were obtained and calculated using GraphPad Prism7 software.

[2] = target: T1, human CEACAM5 on CEACAM5-expressing …; assay: flow cytometry on Ls174T cells (carry CEACAM5 and CD47), PE anti-human IgG Fc
Protocol: as §1, §2

[3] = target: T2, human CD47 expressed at the surface of MKN-45 cells (human, UniProt Q08722 19-323); assay: CD47/SIRPα blocking assay on MKN-45 cells (carry CD47 and CEACAM5), imaging of bound SIRPα-mouseFc
T2 construct: whole, on cells; MKN-45 cells express both CD47 and CEACAM5; also called hCD47
Description: The cell-based assay monitoring the interaction of soluble SIRPa with human CD47 expressed at the surface of MKN-45 cells as described below was used for the detection of the blocking activity. Concentration-response experiments with bispecific antibodies according to the invention allowed determination of inhibition curves (see FIG. 4) and of IC50 values (see Table 12).
MKN-45 cancer cells, expressing both CD47 and CEACAM5, were stained with CFSE violet to allow the imaging system (CX5) to detect the cells. Briefly, 3'000 stained MKN-45 cells per well were seeded in a 384 optical well plate (Costar) and incubated for 50 minutes with increased concentrations of bispecific antibodies of the invention ([…] to 333 nM, in quadruplicates). Then, a fixed concentration of SIRPα-mouseFc premixed with anti-mouse IgG-Fc AF647 coupled antibody (Jackson Immunoresearch diluted 1:2000) was added at 50 ng/mL final. After an incubation of 3 hours and 30 minutes, images of the fluorescence signals emitted by the detected bound SIRPa on the plates were acquired with the imaging system (CX5, Thermo Fisher). Fluorescence signals (mean fluorescence intensity MFI) were plotted according to the dose range tested, and IC50 was calculated by the software (Prism, GraphPad).

[4] = target: T1, human CEACAM5 on CEACAM5-expressing …; assay: flow cytometry on HPAF-II cells (carry CEACAM5 and CD47), PE anti-human IgG Fc
Protocol: as §1, §2

[5] = target: T1, human CEACAM5 on CEACAM5-expressing …; assay: flow cytometry on SNU-C1 cells (carry CEACAM5 and CD47), PE anti-human IgG Fc
Protocol: as §1, §2

[6] = target: T1, human CEACAM5 on CEACAM5-expressing …; assay: flow cytometry on MKN-45 cells (carry CEACAM5 and CD47), PE anti-human IgG Fc
Protocol: as §1, §2

[7] = target: T1, human CEACAM5 on CEACAM5-expressing …; assay: flow cytometry on SK-CO-1 cells (carry CEACAM5 and CD47), PE anti-human IgG Fc
Protocol: as §1, §2

T2 sequence (Q08722 19-323): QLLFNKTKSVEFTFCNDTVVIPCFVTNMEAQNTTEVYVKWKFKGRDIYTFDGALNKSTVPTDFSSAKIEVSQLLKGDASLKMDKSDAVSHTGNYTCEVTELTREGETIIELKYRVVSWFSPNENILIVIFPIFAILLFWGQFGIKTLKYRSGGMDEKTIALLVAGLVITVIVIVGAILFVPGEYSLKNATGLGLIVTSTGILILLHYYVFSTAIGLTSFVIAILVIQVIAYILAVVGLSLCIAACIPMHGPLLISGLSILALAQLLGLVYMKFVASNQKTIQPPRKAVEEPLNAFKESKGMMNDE

Row | Binder | EC50 [1] | Emax (MFI) [1] | EC50 [2] | Emax (MFI) [2] | IC50 [3] | EC50 [4] | Emax (MFI) [4] | EC50 [5] | Emax (MFI) [5] | EC50 [6] | Emax (MFI) [6] | EC50 [7] | Emax (MFI) [7]
1 | B1 | 22 nM | 260000 MFI | 11.3 nM | 77000 MFI | 0.07 nM | 11.3 nM | 940000 MFI | 4.4 nM | 280000 MFI | 10 nM | 1.18e+06 MFI | 17.3 nM | 900000 MFI
2 | B2 | 16 nM | 380000 MFI | 6 nM | 100000 MFI | 0.05 nM | – | – | 2.53 nM | 400000 MFI | 8 nM | 1.64e+06 MFI | 12.7 nM | 1.3e+06 MFI
3 | B3 | 20 nM | 320000 MFI | 6.7 nM | 70000 MFI | 0.08 nM | 7.3 nM | 1.2e+06 MFI | 3.13 nM | 370000 MFI | 8 nM | 1.35e+06 MFI | 14.7 nM | 1.1e+06 MFI
